According to patent publication US7312060:

Legend:
[1] = biological target: N- and C-terminally tagged APC protein (cell-free expressed, Example 45) (UniProt P25054)
[2] = tested on: N- and C-terminally tagged MDM (cell-free expressed)
[3] = tested on: N- and C-terminally tagged PKA (cell-free expressed)

Chain of UniProt P25054 (P25054 1098-1696): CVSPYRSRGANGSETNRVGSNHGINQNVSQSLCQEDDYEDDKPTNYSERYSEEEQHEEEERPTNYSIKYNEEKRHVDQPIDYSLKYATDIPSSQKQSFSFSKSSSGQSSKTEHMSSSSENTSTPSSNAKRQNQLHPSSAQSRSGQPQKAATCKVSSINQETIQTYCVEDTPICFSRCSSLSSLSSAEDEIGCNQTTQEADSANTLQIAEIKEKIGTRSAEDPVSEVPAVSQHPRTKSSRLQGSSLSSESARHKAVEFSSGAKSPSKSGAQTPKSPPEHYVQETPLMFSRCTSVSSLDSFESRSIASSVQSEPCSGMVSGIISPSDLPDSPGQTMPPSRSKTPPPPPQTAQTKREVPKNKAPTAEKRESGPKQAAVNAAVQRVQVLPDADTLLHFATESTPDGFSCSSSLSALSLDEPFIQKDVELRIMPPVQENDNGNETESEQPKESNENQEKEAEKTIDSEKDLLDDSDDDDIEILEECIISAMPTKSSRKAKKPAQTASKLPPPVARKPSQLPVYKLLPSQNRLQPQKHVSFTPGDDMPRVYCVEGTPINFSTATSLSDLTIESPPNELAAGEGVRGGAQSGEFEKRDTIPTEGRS

Caspase-3
protease substrate degradation monitored by ELISA [1]: degraded ... in a time-dependent manner
protease substrate degradation monitored by ELISA [2]: degraded ... in a time-dependent manner
protease substrate degradation monitored by ELISA [3]: unaffected
